Measured values as given in US20090269320.
Residue numbers refer to the chain shown, from its start.

Legend:
[1] = tested on: T1, PEDF purified from human plasma
T1 sequence: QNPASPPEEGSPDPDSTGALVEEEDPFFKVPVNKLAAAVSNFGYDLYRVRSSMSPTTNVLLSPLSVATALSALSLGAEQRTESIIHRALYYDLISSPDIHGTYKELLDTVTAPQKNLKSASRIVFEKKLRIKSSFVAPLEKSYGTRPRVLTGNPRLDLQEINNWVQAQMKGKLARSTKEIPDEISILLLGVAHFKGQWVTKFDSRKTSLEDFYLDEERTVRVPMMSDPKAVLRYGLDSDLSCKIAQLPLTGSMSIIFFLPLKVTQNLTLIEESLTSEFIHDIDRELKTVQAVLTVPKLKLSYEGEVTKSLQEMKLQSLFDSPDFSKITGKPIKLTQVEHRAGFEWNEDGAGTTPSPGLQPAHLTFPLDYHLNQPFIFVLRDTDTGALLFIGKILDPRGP

rPEDF variant S227A = tested on: T2, rPEDF variant S227A
T2 sequence: T1 sequence with S208A

[2] = tested on: T3, recombinant PEDF (recombinant wild-type human pigment epithelium derived factor)
T3 sequence: T1 sequence

rPEDF variant S227E = tested on: T4, rPEDF variant S227E
T4 sequence: T1 sequence with S208E

[3] = tested on: T5, rPEDF double variant S24,114A
T5 sequence: T1 sequence with S5A, S95A

rPEDF variant S24E = tested on: T6, rPEDF variant S24E
T6 sequence: T1 sequence with S5E

[4] = tested on: T7, rPEDF double variant S24,114E
T7 sequence: T1 sequence with S5E, S95E

rPEDF variant S114A = tested on: T8, rPEDF variant S114A
T8 sequence: T1 sequence with S95A

rPEDF variant S114E = tested on: T9, rPEDF variant S114E
T9 sequence: T1 sequence with S95E

rPEDF variant S24A = tested on: T10, rPEDF variant S24A
T10 sequence: T1 sequence with S5A

catalytic subunit of PKA
in vitro PKA phosphorylation ([γ32P]-ATP, heparin, autoradiography) [1]: Both rPEDF and plPEDF were equally phosphorylated by PKA in the presence of heparin | in vitro PKA phosphorylation (autoradiography) (rPEDF variant S227A): Mutation of Ser227 to Ala or to Glu completely abolished PKA phosphorylation | in vitro PKA phosphorylation ([γ32P]-ATP, heparin, autoradiography) [2]: Both rPEDF and plPEDF were equally phosphorylated by PKA in the presence of heparin | in vitro PKA phosphorylation (autoradiography) (rPEDF variant S227E): Mutation of Ser227 to Ala or to Glu completely abolished PKA phosphorylation

recombinant human CK2 (casein kinase 2)
in vitro CK2 phosphorylation (autoradiography) [3]: the double variant S24,114A almost completely abolished this phosphorylation | in vitro CK2 phosphorylation ([γ32P]-ATP, autoradiography) [1]: Both rPEDF and plPEDF were phosphorylated by CK2; CK2 phosphorylation of rPEDF was stronger than the phosphorylation of plPEDF | in vitro CK2 phosphorylation (autoradiography) (rPEDF variant S24E): the S24E mutation reduced phosphorylation only to a moderate extent | in vitro CK2 phosphorylation (autoradiography) [4]: both S114E and S24,114E mutations significantly increased CK2 phosphorylation compared with CK2 phosphorylation of rPEDF | in vitro CK2 phosphorylation (autoradiography) (rPEDF variant S114A): The S114A variant significantly reduced CK2 phosphorylation | in vitro CK2 phosphorylation ([γ32P]-ATP, autoradiography) [2]: Both rPEDF and plPEDF were phosphorylated by CK2; CK2 phosphorylation of rPEDF was stronger than the phosphorylation of plPEDF | in vitro CK2 phosphorylation (autoradiography) (rPEDF variant S114E): both S114E and S24,114E mutations significantly increased CK2 phosphorylation compared with CK2 phosphorylation of rPEDF | in vitro CK2 phosphorylation (autoradiography) (rPEDF variant S24A): Mutation of S24A significantly reduced CK2 phosphorylation
